Molecular target: triplex subunit VP23 (HSV-1) (human herpes simplex virus type 1 (HSV-1), strain KOS) (UniProt P10202)
Assay: cryo-EM structure

Substance: triplex subunit VP23 (HSV-1) (from UniProt P10202 1-318) (natural protein)
- stoichiometry N: 2
